Data from US20100040606A1 (SYMPHOGEN A S, published 2010).

B1: antibody from clone 856 (antibody, human IgG1, kappa, V domains shown)
VH: QVQLVQSGAEVKKPGASVKVSCKASGYTFSNYGFSWVRQAPGRGLEWMGWISAYNGNTYYAQNLQGRVTMTTDTSTTTAYMVLRSLRSDDTAMYYCARDGNTAGVDMWSRDGFDIWGQGTMVTVSS
VL: DIVMTQTPLSLPVTPGEPASISCRSSQSLLDSNDGNTYLDWYLQKPGQSPQLLIYTFSYRASGVPDRFSGSGSGTDFTLKISRVEAEDVGVYYCMQRIEFPYTFGQGTKLEIKR
B2: Palivizumab (antibody, V domains shown)
VH: QVTLRESGPALVKPTQTLTLTCTFSGFSLSTSGMSVGWIRQPPGKALEWLADIWWDDKKDYNPSLKSRLTISKDTSKNQVVLKVTNMDPADTATYYCARSMITNWYFDVWGAGTTVTVSS
VL: DIQMTQSPSTLSASVGDRVTITCKCQLSVGYMHWYQQKPGKAPKLLIYDTSKLASGVPSRFSGSGSGTEFTLTISSLQPDDFATYYCFQGSGYPFTFGGGTKLEIK
B3: Fab fragment of antibody from clone 796 (Fab, V domains shown)
VH: QVQLVESGGGVVQPGRSLRLSCAASGFSFSHFGMHWVRQVPGKGLEWVAIISYDGNNVHYADSVKGRFTISRDNSKNTLFLQMNSLRDDDTGVYYCAKDDVATDLAAYYYFDVWGRGTLVTVSS
VL: DIVMTQTPLSLSVTPGQPASISCRSSQSLLRSDGKTFLYWYLQKPGQSPQPLMYEVSSRFSGVPDRFSGSGSGADFTLNISRVETEDVGIYYCMQGLKIRRTFGPGTKVEIKR
notes: also called Fab clone 796; 796 (G)
B4: antibody from clone 853 (antibody, human IgG1, kappa, V domains shown)
VH: EVQLVQSGAEVKKPGQSLKISCKTSGYIFTNYWIGWVRQRPGKGLEWMGVIFPADSDARYSPSFQGQVTISADKSIGTAYLQWSSLKASDTAIYYCARPKYYFDSSGQFSEMYYFDFWGQGTLVTVSS
VL: EIVLTQSPGTLSLSPGERATLSCRASQSVSSNYLAWYQQKPGQAPRLLIYGASSRAAGMPDRFSGSGSGTDFTLTISRLEPEDFAVYYCQQYGNSPLTFGGGTEVEIKR
B5: Fab fragment of antibody from clone 853 (Fab, V domains shown)
VH: EVQLVQSGAEVKKPGQSLKISCKTSGYIFTNYWIGWVRQRPGKGLEWMGVIFPADSDARYSPSFQGQVTISADKSIGTAYLQWSSLKASDTAIYYCARPKYYFDSSGQFSEMYYFDFWGQGTLVTVSS
VL: EIVLTQSPGTLSLSPGERATLSCRASQSVSSNYLAWYQQKPGQAPRLLIYGASSRAAGMPDRFSGSGSGTDFTLTISRLEPEDFAVYYCQQYGNSPLTFGGGTEVEIKR
notes: also called Fab clone 853; 853 (G)
B6: antibody from clone 835 (antibody, human IgG1, kappa, V domains shown)
VH: QVQLVQSGAEVKRPGASVKVSCKASGYTFISYGFSWVRQAPGQGLEWMGWSSVYNGDTNYAQKFHGRVNMTTDTSTNTAYMELRGLRSDDTAVYFCARDRNVVLLPAAPFGGMDVWGQGTMVTVSS
VL: DIQLTQSPSFLSASLEDRVTITCRASQGISSYLAWYQQKPGKAPKLLLDAASTLQSGVPSRFSGSGSGTEFTLTISSLQPEDFATYYCQQLNSYPRTFGQGTKVDIKR
B7: antibody from clone 888 (antibody, human IgG1, kappa, V domains shown)
VH: QLQLQESGPGLVKPSETLSLTCTASGGSINSSNFYWGWIRQPPGKGLEWIGSIFYSGTTYYNPSLKSRVTISVDTSKNQFSLKLSPVTAADTAVYHCARHGFRYCNNGVCSINLDAFDIWGQGTMVTVSS
VL: DIVMTQSPLSLPVTPGAPASISCRSSQSLLRTNGYNYLDWYLQKPGQSPQLLIYLGSIRASGVPDRFSGSGSGTDFTLKISRVEAEDVGVYYCMQSLQTSITFGQGTRLEIKR
B8: antibody from clone 855 (antibody, human IgG1, kappa, V domains shown)
VH: QVQLVQSGPEVKKPGASVKVSCKASGYVLTNYAFSWVRQAPGQGLEWLGWISGSNGNTYYAEKFQGRVTMTTDTSTSTAYMELRSLRSDDTAVYFCARDLLRSTYFDYWGQGTLVTVSS
VL: DIQMTQSPSSVSASVGDRVTITCRASQAISNWLAWYQQKPGKAPKLLIYAASSLQSGVPSRFSGSGSGTDFTLTISGLQPEDFATYYCQQADTFPFTFGPGTKVDIKR
B9: antibody from clone 841 (antibody, human IgG1, kappa, V domains shown)
VH: QVQLVQSGAEVKKPGASVKVSCKASGYTFISFGISWVRQAPGQGLEWMGWISAYNGNTDYAQRLQDRVTMTRDTATSTAYLELRSLKSDDTAVYYCTRDESMLRGVTEGFGPIDYWGQGTLVTVSS
VL: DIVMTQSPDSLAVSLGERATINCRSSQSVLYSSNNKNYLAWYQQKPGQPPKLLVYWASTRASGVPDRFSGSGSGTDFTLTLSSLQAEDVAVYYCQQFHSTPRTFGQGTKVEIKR
B10: Fab fragment of antibody from clone 811 (Fab, V domains shown)
VH: QVQLVQSGAVVETPGASVKVSCKASGYIFGNYYIHWVRQAPGQGLEWMAVINPNGGSTTSAQKFQDRITVTRDTSTTTVYLEVDNLRSEDTATYYCARQRSVTGGFDAWLLIPDASNTWGQGTMVTVSS
VL: DIVMTQSPDSLAVSLGERATINCRSSETVLYTSKNQSYLAWYQQKARQPPKLLLYWASTRESGVPARFSGSGSGTDFTLAISSLQAEDVAVYYCQQFFRSPFTFGPGTRLEIKR
notes: also called Fab clone 811; 811 (G)
B11: Fab fragment of antibody from clone 816 (Fab, V domains shown)
VH: EVQLLESGGGLVQPGGSLRLSCVASGFTFSTYAMTWVRQAPGKGLEWVSVIRASGDSEIYADSVRGRFTISRDNSKNTVFLQMDSLRVEDTAVYFCANIGQRRYCSGDHCYGHFDYWGQGTLVTVSS
VL: DIVMTQSPLSLPVTPGEPASISCRSSQSLLHSDGRYYVDWYLQKPGQSPHLLIYLASNRASGVPDRFTGSGSGTDFTLKISRVEAEDVGVYYCMQGLHTPWTFGQGTKVDIKR
B12: antibody from clone 816 (antibody, human IgG1, kappa, V domains shown)
VH: EVQLLESGGGLVQPGGSLRLSCVASGFTFSTYAMTWVRQAPGKGLEWVSVIRASGDSEIYADSVRGRFTISRDNSKNTVFLQMDSLRVEDTAVYFCANIGQRRYCSGDHCYGHFDYWGQGTLVTVSS
VL: DIVMTQSPLSLPVTPGEPASISCRSSQSLLHSDGRYYVDWYLQKPGQSPHLLIYLASNRASGVPDRFTGSGSGTDFTLKISRVEAEDVGVYYCMQGLHTPWTFGQGTKVDIKR
B13: Fab fragment of antibody from clone 838 (Fab, V domains shown)
VH: QVQLVESGGGVVQPGTSLRLSCAASGFTFSTFGMHWVRQAPGKGLEWVAVISYDGNKKYYADSVKGRFTISRDNSKNTLYLQVNSLRVEDTAVYYCAAQTPYFNESSGLVPDWGQGTLVTVSS
VL: DIQMTQSPSSLSASVGDRVSITCRASQGISNYLAWYQQKPGKVPKLLIYAASTLQSGVPSRFSGSGSGTDFTLTISSLQPEDVATYYCQKYNSAPQTFGQGTKVEIKR
notes: also called Fab clone 838; 838 (G)
B14: Fab fragment of antibody from clone 859 (Fab, V domains shown)
VH: QVQLVESGGGVVQPGRSLRLSCAVSGSSFSKYGIHWVRQAPGKGLEWVAVISYDGSKKYFTDSVKGRFTIARDNSQNTVFLQMNSLRAEDTAVYYCATGGGVNVTSWSDVEHSSSLGYWGLGTLVTVSS
VL: DIQMTQSPSSLSASVGDRVTITCRASQGIRNYLAWYQQKPGKVPKLLVFAASTLQSGVPSRFSGSGSGTDFTLTISSLQPEDVATYYCQRYNSAPLTFGGGTKVEIKR
notes: also called Fab clone 859; 859 (G)
B15: antibody from clone 793 (antibody, human IgG1, kappa, V domains shown)
VH: QVQLVESGGGLVKPGGSLRLSCAASGFPFGDYYMSWIRQAPGKGLEWVAYINRGGTTIYYADSVKGRFTISRDNAKNSLFLQMNSLRAGDTALYYCARGLILALPTATVELGAFDIWGQGTMVTVSS
VL: DIQMTQSPSSLSASVGDRVTITCRASQSITGYLNWYQQKPGKAPKLLIYATSTLQSEVPSRFSGSGSGTDFTLTISSLQPEDFATYYCQQSYNTLTFGGGTKVEIKR

Key:
[1] = biological target: T1, recombinant human fractalkine (CX3CL1; R&D systems) (human, UniProt P78423 25-100); assay: ELISA
T1 sequence (looked up): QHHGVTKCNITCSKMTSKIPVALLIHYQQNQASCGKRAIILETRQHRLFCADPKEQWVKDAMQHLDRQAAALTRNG

[2] = biological target: RSV protein F (fusion glycoprotein), recombinant or purified (human respiratory syncytial virus, …, UniProt P03420 26-109; P03420 137-524); assay: cell-based or functional assay
[3] = biological target: T2, soluble recombinant G protein (amino acids 66-292 of the 18537 strain sequence) (RSV strain 18537 (subtype B), UniProt P20896 66-292); assay: SPR (Biacore 3000), Fab over immobilised recombinant antigen;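 note: antigen immobilised on CM5 chip at very low density (about 50 RU), rate constants fitted globally with a 1:1 Langmuir model, Fabs obtained by enzymatic cleavage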
T2 construct: also called G(B); recombinant protein G
T2 sequence: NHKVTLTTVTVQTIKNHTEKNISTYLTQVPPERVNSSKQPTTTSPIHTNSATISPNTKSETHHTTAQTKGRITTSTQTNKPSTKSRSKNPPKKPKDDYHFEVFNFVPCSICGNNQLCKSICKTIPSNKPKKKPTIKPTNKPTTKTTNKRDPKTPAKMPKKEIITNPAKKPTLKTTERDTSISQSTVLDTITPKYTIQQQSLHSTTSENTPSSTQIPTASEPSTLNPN

[4] = biological target: RSV G protein (receptor-binding glycoprotein) (human respiratory syncytial virus, …); assay: cell-based or functional assay

RSV protein F (fusion glycoprotein), recombinant or purified, sequence (P03420 26-109, chain 1 of 2): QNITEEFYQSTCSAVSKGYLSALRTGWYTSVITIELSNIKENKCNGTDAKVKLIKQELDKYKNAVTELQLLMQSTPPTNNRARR
RSV protein F (fusion glycoprotein), recombinant or purified, sequence (P03420 137-524, chain 2 of 2): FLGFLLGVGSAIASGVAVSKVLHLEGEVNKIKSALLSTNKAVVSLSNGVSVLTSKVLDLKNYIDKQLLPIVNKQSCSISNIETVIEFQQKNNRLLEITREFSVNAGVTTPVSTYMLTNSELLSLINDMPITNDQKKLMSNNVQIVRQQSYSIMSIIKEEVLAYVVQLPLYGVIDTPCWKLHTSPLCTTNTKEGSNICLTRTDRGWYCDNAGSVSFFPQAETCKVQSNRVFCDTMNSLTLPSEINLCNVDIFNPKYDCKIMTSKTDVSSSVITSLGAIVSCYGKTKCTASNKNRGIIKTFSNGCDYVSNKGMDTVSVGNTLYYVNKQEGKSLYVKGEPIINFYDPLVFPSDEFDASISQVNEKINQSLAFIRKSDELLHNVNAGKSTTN

Binder | binding result [1] | EC50, PRNT with complement, RSV subtype A [2] [µg/mL] | Kd [3] [nM] | koff [3] [s⁻¹] | kon [3] [M⁻¹ s⁻¹] | t1/2 [3] [h] | EC50, PRNT with complement, RSV subtype A [4] [µg/mL]
B1 | no binding | – | – | – | – | – | –
B2 | – | 0.14 | – | – | – | – | –
B3 | – | – | 0.48 | 0.000403 | 833000 | 0.478 | –
B4 | no binding | – | – | – | – | – | 1.49
B5 | – | – | 0.79 | 0.0014 | 1.77e+06 | 0.138 | –
B6 | no binding | – | – | – | – | – | –
B7 | no binding | – | – | – | – | – | 0.14
B8 | no binding | – | – | – | – | – | 6.35
B9 | no binding | – | – | – | – | – | –
B10 | – | – | 0.34 | 0.000171 | 498000 | 1.13 | –
B11 | – | – | 0.09 | 0.000178 | 2.02e+06 | 1.08 | –
B12 | no binding | – | – | – | – | – | –
B13 | – | – | 0.19 | 5.06e-05 | 264000 | 3.83 | –
B14 | – | – | 0.12 | 4.63e-05 | 380000 | 4.17 | –
B15 | no binding | – | – | – | – | – | 2.52
